Results published in patent US6884866B2, “Bulk drying and the effects of inducing bubble nucleation” (Avant Immunotherapeutics, Inc., priority 2001, dated 2005).

Assay: Urokinase activity after foam drying and storage
Assay type: physicochemical
Description: (7) Freeze-dried samples of Urokinase were rehydrated with 2 ml of 40 wt % sucrose. The solutions were then transferred to 20 ml sterilized glass vials for future preservation by drying. Before drying, the vials were covered with gray slotted rubber stoppers. The vials were dried inside a vacuum chamber. The vials were sitting on the surface of a stainless steel shelf inside the chamber. The shelf temperature was controlled by circulating ethylene glycol/water antifreeze at a controlled temperature inside the shelf. Before the vacuum was applied the shelf temperature was decreased to 5° C. Then the hydrostatic pressure inside the chamber was decreased to 0.5 Torr. Under such conditions, the suspension boiled for 30 min. […] Visually, under these experimental conditions, stable dry foams were formed inside the vials within 3 hours. After an additional 12 hours of drying at room temperature, the temperature was increased to 45° C. and maintained for an additional 24 hours. After that the chamber was filled with dry N2 gas, the rubber stoppers were pushed down and the vials were sealed with aluminum crimp seals.
The samples were assayed immediately after drying and after 30 days of storage at 40° C. After drying the Urokinase, activity was 93% of the initial activity. […]

Substance: Urokinase
- Urokinase activity, % of the initial activity (after 30 days of storage at 40° C.): 90%
- Urokinase activity, % of the initial activity (immediately after drying (40 wt % sucrose, maximum 45° C.)): 93%
